Assay results as given in publication PMC9241672.
pKd: −log10 of the molar value.

Test system: His-ArgR2 (Lactiplantibacillus plantarum AR195)
Assay: BLI
Settings: ArgR2 256-4097 nM; BLI: 10 mM HEPES pH 8.0, 2 mM MgCl2, 0.1 mM EDTA, 200 mM KCl, 1 per mille (w/v) BSA and 2 per mille (v/v) Tween 20 in protein buffer; temperature not stated. …

Question: With cla promoter probe as the substance, how does the pKd read?
Answer: The pKd was greater than 12.00.
